# Experiments:
# Assay in all cases: cell-based or functional assay
# [1] = molecular target: HIV-1 Env of pseudovirus isolate MGRM-G-014 (subtype G) (HIV-1)
# [2] = molecular target: HIV-1 Env of pseudovirus isolate MGRM-G-024 (subtype G) (HIV-1)
# [3] = molecular target: HIV-1 Env of isolate 98CN009 (subtype CRF07_BC) (HIV-1)
# [4] = molecular target: HIV-1 Env of pseudovirus isolate MGRM-G-025 (subtype G) (HIV-1)
# [5] = molecular target: HIV-1 Env of pseudovirus isolate MGRM-G-011 (subtype G) (HIV-1)
# [6] = molecular target: HIV-1 Env of pseudovirus isolate MGRM-G-019 (subtype G) (HIV-1)
# [7] = molecular target: HIV-1 Env of pseudovirus isolate MGRM-G-004 (subtype G) (HIV-1)
# [8] = molecular target: HIV-1 Env of pseudovirus isolate MGRM-G-009 (subtype G) (HIV-1)
# [9] = molecular target: HIV-1 Env of pseudovirus isolate MGRM-G-015 (subtype G) (HIV-1)
# [10] = molecular target: envelope of aMLV pseudovirus (negative control)
# [11] = molecular target: HIV-1 Env of pseudovirus isolate MGRM-G-016 (subtype G) (HIV-1)
# [12] = molecular target: HIV-1 Env of isolate 92UG024 (subtype D) (HIV-1)
# [13] = molecular target: HIV-1 Env of isolate 92UG005 (subtype D) (HIV-1)
# [14] = molecular target: HIV-1 Env of pseudovirus isolate MGRM-G-028 (subtype G) (HIV-1)
# [15] = molecular target: HIV-1 Env of isolate 98CN006 (subtype CRF08_BC) (HIV-1)
# [16] = molecular target: HIV-1 Env of pseudovirus isolate MGRM-G-001 (subtype G) (HIV-1)
# [17] = molecular target: HIV-1 Env of isolate 92UG046 (subtype D) (HIV-1)
# [18] = molecular target: HIV-1 Env of isolate 92UG001 (subtype D) (HIV-1)
# [19] = molecular target: HIV-1 Env of pseudovirus isolate MGRM-G-006 (subtype G) (HIV-1)
# [20] = molecular target: HIV-1 Env of pseudovirus isolate MGRM-G-017 (subtype G) (HIV-1)
# [21] = molecular target: HIV-1 Env of pseudovirus isolate MGRM-G-013 (subtype G) (HIV-1)
# [22] = molecular target: HIV-1 Env of pseudovirus isolate MGRM-G-027 (subtype G) (HIV-1)
# [23] = molecular target: HIV-1 Env of isolate JRFL (HIV-1)
# [24] = molecular target: HIV-1 Env of isolate MGRM-Chronic-B-002 (HIV-1)
# [25] = molecular target: HIV-1 Env of isolate MGRM-Chronic-B-004 (HIV-1)
# [26] = molecular target: HIV-1 Env of isolate 92 BR 020 (HIV-1)
# [27] = molecular target: HIV-1 Env of isolate SF162 (HIV-1) (UniProt P19550)
# [28] = molecular target: HIV-1 Env of isolate APV_6 (HIV-1)
# [29] = molecular target: HIV-1 Env of isolate MGRM-Chronic-B-017 (HIV-1)
# [30] = molecular target: HIV-1 Env of isolate 93TH305 (HIV-1)
# [31] = molecular target: HIV-1 Env of isolate MGRM-Chronic-B-018 (HIV-1)
# [32] = molecular target: HIV-1 Env of isolate 93IN905 (HIV-1)
# [33] = molecular target: HIV-1 Env of isolate MGRM-Chronic-B-011 (HIV-1)
# [34] = molecular target: HIV-1 Env of isolate 97ZA012 (HIV-1)
# [35] = molecular target: HIV-1 Env of isolate 98IN022 (HIV-1)
# [36] = molecular target: HIV-1 Env of isolate NL43 (HIV-1)
# [37] = molecular target: HIV-1 Env of isolate MGRM-Chronic-B-010 (HIV-1)
# [38] = molecular target: HIV-1 Env of isolate 93MW959 (HIV-1)
# [39] = molecular target: HIV-1 Env of isolate TRO.11 (HIV-1)
# [40] = molecular target: HIV-1 Env of isolate APV_13 (HIV-1)
# [41] = molecular target: HIV-1 Env of isolate THR0.18 (HIV-1)
# [42] = molecular target: HIV-1 Env of isolate TRJ04551.58 (HIV-1)
# [43] = molecular target: HIV-1 Env of isolate CAAN.A2 (HIV-1)
# [44] = molecular target: HIV-1 Env of isolate 6535.3 (HIV-1)
# [45] = molecular target: HIV-1 Env of isolate MGRM-Chronic-B-020 (HIV-1)
# [46] = molecular target: HIV-1 Env of isolate VLGCB3 (HIV-1)
# [47] = molecular target: HIV-1 Env of isolate MGRM-Chronic-B-008 (HIV-1)
# [48] = molecular target: HIV-1 Env of isolate MGRM-Chronic-B-001 (HIV-1)
# [49] = molecular target: HIV-1 Env of isolate MGRM-Chronic-B-023 (HIV-1)
# [50] = molecular target: HIV-1 Env of isolate JRCSF (HIV-1) (UniProt P20871)
# [51] = molecular target: HIV-1 Env of isolate QH0692.42 (HIV-1)
# [52] = molecular target: HIV-1 Env of isolate MGRM-Chronic-B-024 (HIV-1)
# [53] = molecular target: HIV-1 Env of isolate APV_17 (HIV-1)
# [54] = molecular target: HIV-1 Env of isolate MGRM-Chronic-B-003 (HIV-1)
# [55] = molecular target: HIV-1 Env of isolate MGRM-Chronic-B-012 (HIV-1)
# [56] = molecular target: HIV-1 Env of isolate PVO.4 (HIV-1)
# [57] = molecular target: HIV-1 Env of isolate SC422661.8 (HIV-1)
# Chain of PGT-145 (antibody) (VH): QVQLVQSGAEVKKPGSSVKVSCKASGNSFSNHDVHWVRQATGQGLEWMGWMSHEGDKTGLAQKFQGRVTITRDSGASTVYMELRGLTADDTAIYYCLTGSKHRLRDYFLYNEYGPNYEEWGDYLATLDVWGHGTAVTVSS
# Chain of PGT-145 (antibody) (VL): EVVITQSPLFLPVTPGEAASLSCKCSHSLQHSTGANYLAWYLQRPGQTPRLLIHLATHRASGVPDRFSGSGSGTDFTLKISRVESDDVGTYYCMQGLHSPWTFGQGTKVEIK
# Chain of PGT-143 (antibody) (VH): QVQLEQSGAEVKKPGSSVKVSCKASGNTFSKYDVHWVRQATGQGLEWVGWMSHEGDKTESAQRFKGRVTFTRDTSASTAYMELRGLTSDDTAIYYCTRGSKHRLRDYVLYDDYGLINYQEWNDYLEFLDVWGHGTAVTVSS
# Chain of PGT-143 (antibody) (VL): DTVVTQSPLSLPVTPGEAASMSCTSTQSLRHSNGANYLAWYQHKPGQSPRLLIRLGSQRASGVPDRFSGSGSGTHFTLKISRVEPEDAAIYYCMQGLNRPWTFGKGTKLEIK
# Chain of PGT-144 (antibody) (VH): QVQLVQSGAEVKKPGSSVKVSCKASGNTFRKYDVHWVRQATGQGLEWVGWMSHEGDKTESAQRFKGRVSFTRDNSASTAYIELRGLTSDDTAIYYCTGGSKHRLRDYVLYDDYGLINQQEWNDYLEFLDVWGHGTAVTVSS
# Chain of PGT-144 (antibody) (VL): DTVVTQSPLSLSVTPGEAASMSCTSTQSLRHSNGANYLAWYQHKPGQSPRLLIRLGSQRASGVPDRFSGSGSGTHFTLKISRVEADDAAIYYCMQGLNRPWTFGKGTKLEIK
substance,measurement,setting,value
PGT-145 (antibody),IC50,[1],0.144 µg/mL
same,IC50,[2],0.06 µg/mL
same,IC50 (neutralization),[3],0.136 µg/mL
same,IC50,[4],> 50 µg/mL
same,IC50,[5],0.028 µg/mL
same,IC50,[6],0.041 µg/mL
same,IC50,[7],> 50 µg/mL
same,IC50,[8],0.982 µg/mL
same,IC50,[9],10.5 µg/mL
same,IC50,[10],> 50 µg/mL
same,IC50,[11],0.081 µg/mL
same,IC50 (neutralization),[12],1.6 µg/mL
same,IC50 (neutralization),[13],> 50 µg/mL
same,IC50,[14],0.046 µg/mL
same,IC50 (neutralization),[15],> 50 µg/mL
same,IC50,[16],0.028 µg/mL
same,IC50 (neutralization),[17],> 50 µg/mL
same,IC50 (neutralization),[18],> 50 µg/mL
same,IC50,[19],0.286 µg/mL
same,IC50,[20],0.205 µg/mL
same,IC50,[21],> 50 µg/mL
same,IC50,[22],0.433 µg/mL
PGT-143 (antibody),IC50,[1],0.107 µg/mL
same,IC50,[2],0.048 µg/mL
same,IC50 (neutralization),[3],10.2 µg/mL
same,IC50,[4],> 50 µg/mL
same,IC50,[5],0.074 µg/mL
same,IC50,[6],4.77 µg/mL
same,IC50,[7],> 50 µg/mL
same,IC50,[8],2.97 µg/mL
same,IC50,[9],> 50 µg/mL
same,IC50,[10],> 50 µg/mL
same,IC50,[11],7.6 µg/mL
same,IC50 (neutralization),[12],> 50 µg/mL
same,IC50 (neutralization),[13],> 50 µg/mL
same,IC50,[14],43 µg/mL
same,IC50 (neutralization),[15],> 50 µg/mL
same,IC50,[16],0.423 µg/mL
same,IC50 (neutralization),[17],> 50 µg/mL
same,IC50 (neutralization),[18],> 50 µg/mL
same,IC50,[19],0.031 µg/mL
same,IC50,[20],0.107 µg/mL
same,IC50,[21],> 50 µg/mL
same,IC50,[22],> 50 µg/mL
PGT-144 (antibody),IC50,[1],0.562 µg/mL
same,IC50,[2],7.92 µg/mL
same,IC50 (neutralization),[3],> 50 µg/mL
same,IC50,[4],> 50 µg/mL
same,IC50,[5],1.58 µg/mL
same,IC50,[6],> 50 µg/mL
same,IC50,[7],> 50 µg/mL
same,IC50,[8],> 50 µg/mL
same,IC50,[9],> 50 µg/mL
same,IC50,[10],> 50 µg/mL
same,IC50,[11],> 50 µg/mL
same,IC50 (neutralization),[12],> 50 µg/mL
same,IC50 (neutralization),[13],> 50 µg/mL
same,IC50,[14],> 50 µg/mL
same,IC50 (neutralization),[15],> 50 µg/mL
same,IC50,[16],> 50 µg/mL
same,IC50 (neutralization),[17],> 50 µg/mL
same,IC50 (neutralization),[18],> 50 µg/mL
same,IC50,[19],3.84 µg/mL
same,IC50,[20],9.97 µg/mL
same,IC50,[21],> 50 µg/mL
same,IC50,[22],> 50 µg/mL
PGT-131 monoclonal antibody (5136_H01),neutralization IC50,[23],0.454 µg/mL
same,neutralization IC50,[24],> 50 µg/mL
same,neutralization IC50,[25],0.04 µg/mL
same,neutralization IC50,[26],6.16 µg/mL
same,neutralization IC50,[27],0.025 µg/mL
same,neutralization IC50,[28],> 50 µg/mL
same,neutralization IC50,[29],> 50 µg/mL
same,neutralization IC50,[30],0.016 µg/mL
same,neutralization IC50,[31],> 50 µg/mL
same,neutralization IC50,[32],0.177 µg/mL
same,neutralization IC50,[33],6.47 µg/mL
same,neutralization IC50,[34],1.81 µg/mL
same,neutralization IC50,[35],> 50 µg/mL
same,neutralization IC50,[36],> 50 µg/mL
same,neutralization IC50,[37],0.016 µg/mL
same,neutralization IC50,[38],> 50 µg/mL
same,neutralization IC50,[39],1.91 µg/mL
same,neutralization IC50,[40],0.189 µg/mL
same,neutralization IC50,[41],> 50 µg/mL
same,neutralization IC50,[42],0.088 µg/mL
same,neutralization IC50,[43],> 50 µg/mL
same,neutralization IC50,[44],0.056 µg/mL
same,neutralization IC50,[45],0.053 µg/mL
same,neutralization IC50,[46],> 50 µg/mL
same,neutralization IC50,[47],> 50 µg/mL
same,neutralization IC50,[48],> 50 µg/mL
same,neutralization IC50,[49],> 50 µg/mL
same,neutralization IC50,[50],0.029 µg/mL
same,neutralization IC50,[51],> 50 µg/mL
same,neutralization IC50,[52],> 50 µg/mL
same,neutralization IC50,[53],> 50 µg/mL
same,neutralization IC50,[54],> 50 µg/mL
same,neutralization IC50,[55],15.7 µg/mL
same,neutralization IC50,[56],> 50 µg/mL
same,neutralization IC50,[57],> 50 µg/mL
PGT-135 monoclonal antibody (5343_B08; 5344_E16),neutralization IC50,[23],> 50 µg/mL
same,neutralization IC50,[24],> 50 µg/mL
same,neutralization IC50,[25],> 50 µg/mL
same,neutralization IC50,[26],0.073 µg/mL
same,neutralization IC50,[27],0.023 µg/mL
same,neutralization IC50,[28],> 50 µg/mL
same,neutralization IC50,[29],> 50 µg/mL
same,neutralization IC50,[30],> 50 µg/mL
same,neutralization IC50,[31],> 50 µg/mL
same,neutralization IC50,[32],0.011 µg/mL
same,neutralization IC50,[33],> 50 µg/mL
same,neutralization IC50,[34],> 50 µg/mL
same,neutralization IC50,[35],0.014 µg/mL
same,neutralization IC50,[36],8.03 µg/mL
same,neutralization IC50,[37],> 50 µg/mL
same,neutralization IC50,[38],> 50 µg/mL
same,neutralization IC50,[39],0.03 µg/mL
same,neutralization IC50,[40],0.716 µg/mL
same,neutralization IC50,[41],> 50 µg/mL
same,neutralization IC50,[42],> 50 µg/mL
same,neutralization IC50,[43],5.15 µg/mL
same,neutralization IC50,[44],> 50 µg/mL
same,neutralization IC50,[45],0.057 µg/mL
same,neutralization IC50,[46],0.142 µg/mL
same,neutralization IC50,[47],> 50 µg/mL
same,neutralization IC50,[48],> 50 µg/mL
same,neutralization IC50,[49],0.329 µg/mL
same,neutralization IC50,[50],0.131 µg/mL
same,neutralization IC50,[51],> 50 µg/mL
same,neutralization IC50,[52],> 50 µg/mL
same,neutralization IC50,[53],> 50 µg/mL
same,neutralization IC50,[54],> 50 µg/mL
same,neutralization IC50,[55],0.166 µg/mL
same,neutralization IC50,[56],> 50 µg/mL
same,neutralization IC50,[57],21.8 µg/mL

# — patent US20160264649A1
